Results taken from IntAct's records for PubMed 9430655.

B1: Merlin (Homo sapiens), P35240-1 (parent)
chain: MAGAIASRMSFSSLKRKQPKTFTVRIVTMDAEMEFNCEMKWKGKDLFDLVCRTLGLRETWFFGLQYTIKDTVAWLKMDKKVLDHDVSKEEPVTFHFLAKFYPENAEEELVQEITQHLFFLQVKKQILDEKIYCPPEASVLLASYAVQAKYGDYDPSVHKRGFLAQEELLPKRVINLYQMTPEMWEERITAWYAEHRGRARDEAEMEYLKIAQDLEMYGVNYFAIRNKKGTELLLGVDALGLHIYDPENRLTPKISFPWNEIRNISYSDKEFTIKPLDKKIDVFKFNSSKLRVNKLILQLCIGNHDLFMRRRKADSLEVQQMKAQAREEKARKQMERQRLAREKQMREEAERTRDELERRLLQMKEEATMANEALMRSEETADLLAEKAQITEEEAKLLAQKAAEAEQEMQRIKATAIRTEEEKRLMEQKVLEAEVLALKMAEESERRAKEADQLKQDLQEAREAERRAKQKLLEIATKPTYPPMNPIPAPLPPDIPSFNLIGDSLSFDFKDTDMKRLSMEIEKEKVEYMEKSKHLQEQLNELKTEIEALKLKERETALDILHNENSDRGGSSKHNTIKKLTLQSAKSRVAFFEEL
partner: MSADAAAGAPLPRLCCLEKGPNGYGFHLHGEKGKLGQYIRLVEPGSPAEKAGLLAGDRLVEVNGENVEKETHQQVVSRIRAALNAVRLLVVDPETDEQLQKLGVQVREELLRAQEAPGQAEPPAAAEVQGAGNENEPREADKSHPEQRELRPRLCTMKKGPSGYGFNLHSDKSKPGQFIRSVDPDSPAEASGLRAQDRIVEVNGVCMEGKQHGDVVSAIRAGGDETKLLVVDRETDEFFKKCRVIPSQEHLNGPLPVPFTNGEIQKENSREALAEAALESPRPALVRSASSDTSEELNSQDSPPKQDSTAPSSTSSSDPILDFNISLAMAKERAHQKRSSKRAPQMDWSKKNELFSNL

Variants of: B1
Conditions: with nhrf1_human NHERF1, O14745

**Q.** MAGAIASRMSFSSLKRKQPKTFTVRIVTMDAEMEFNCEMKWKGKDLFDLVCRTLGLRETWFFGLQYTIKDTVAWLKMDKKVLDHDVSKEEPVTFHFLAKFYPENAEEELVQEITQHLFFLQVKKQILDEKIYCPPEASVLLASYAVQAKYGDYDPSVHKRGFLAQEELLPKRVINLYQMTPEMWEERITAWYAEHRGRARDEAEMEYLKIAQDLEMYGVYYFAIRNKKGTELLLGVDALGLHIYDPENRLTPKISFPWNEIRNISYSDKEFTIKPLDKKIDVFKFNSSKLRVNKLILQLCIGNHDLFMRRRKADSLEVQQMKAQAREEKARKQMERQRLAREKQMREEAERTRDELERRLLQMKEEATMANEALMRSEETADLLAEKAQITEEEAKLLAQKAAEAEQEMQRIKATAIRTEEEKRLMEQKVLEAEVLALKMAEESERRAKEADQLKQDLQEAREAERRAKQKLLEIATKPTYPPMNPIPAPLPPDIPSFNLIGDSLSFDFKDTDMKRLSMEIEKEKVEYMEKSKHLQEQLNELKTEIEALKLKERETALDILHNENSDRGGSSKHNTIKKLTLQSAKSRVAFFEEL [N220Y] was tested. Which “effect of a mutation on the interaction” value did it give?
**A.** decreasing interaction
